One test addresses canine NPR1 (Canis lupus familiaris, UniProt A0A8I3MHU3). Briefly: cell-based or functional assay.
The target of test [1] is T1, human NPR1 on HEK293 cells (Homo sapiens, UniProt P16066). Kind of test: flow cytometry on cells.
The target of test [2] is T2, cynomolgus monkey NPR1 on HEK293 cells (Macaca fascicularis).
T2 chain: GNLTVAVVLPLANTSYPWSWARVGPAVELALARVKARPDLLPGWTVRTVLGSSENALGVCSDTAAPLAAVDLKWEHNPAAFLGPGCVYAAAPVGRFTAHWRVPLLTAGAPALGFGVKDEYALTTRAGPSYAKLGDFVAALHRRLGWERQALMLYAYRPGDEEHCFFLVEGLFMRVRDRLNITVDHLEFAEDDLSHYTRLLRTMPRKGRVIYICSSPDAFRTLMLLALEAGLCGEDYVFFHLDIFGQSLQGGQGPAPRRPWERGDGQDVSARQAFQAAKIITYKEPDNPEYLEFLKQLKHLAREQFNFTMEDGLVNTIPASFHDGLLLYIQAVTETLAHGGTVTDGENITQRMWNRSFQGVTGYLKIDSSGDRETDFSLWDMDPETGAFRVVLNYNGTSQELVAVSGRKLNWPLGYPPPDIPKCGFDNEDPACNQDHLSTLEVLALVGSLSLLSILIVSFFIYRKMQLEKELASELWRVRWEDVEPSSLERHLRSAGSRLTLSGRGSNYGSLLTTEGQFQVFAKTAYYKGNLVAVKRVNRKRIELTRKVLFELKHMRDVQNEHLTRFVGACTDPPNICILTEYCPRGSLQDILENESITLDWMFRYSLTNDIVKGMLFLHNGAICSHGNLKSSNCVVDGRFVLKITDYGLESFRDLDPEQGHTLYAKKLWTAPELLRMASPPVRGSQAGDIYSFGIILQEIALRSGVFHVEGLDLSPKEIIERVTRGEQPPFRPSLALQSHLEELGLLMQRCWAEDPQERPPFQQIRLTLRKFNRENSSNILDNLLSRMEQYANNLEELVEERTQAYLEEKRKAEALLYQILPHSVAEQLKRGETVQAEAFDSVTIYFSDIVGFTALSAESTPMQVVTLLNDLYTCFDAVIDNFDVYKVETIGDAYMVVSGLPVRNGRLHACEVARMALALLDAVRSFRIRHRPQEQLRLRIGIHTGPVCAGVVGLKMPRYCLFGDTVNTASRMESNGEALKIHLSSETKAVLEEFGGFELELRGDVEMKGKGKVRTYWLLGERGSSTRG
Kind of test: flow cytometry on cells.

Test [3] concerns the target T1, human NPR1 on HEK293 cells. Kind of test: flow cytometry on cells. The source holds these as a separate data set. In general terms: In flow cytometry, cells or beads pass a laser one at a time.
The target in test [4] is T2, cynomolgus monkey NPR1 on HEK293 cells. Kind of test: flow cytometry on cells.
Test [5] addresses T1, human NPR1 on HEK293 cells. Kind of test: flow cytometry on cells. The source holds these as a separate data set.
Test [6] has as its target T2, cynomolgus monkey NPR1 on HEK293 cells. Kind of test: flow cytometry on cells.
The target in test [7] is T3, monkey NPR1 extracellular domain with C-terminal MycMycHis (Macaca fascicularis).
T3 chain: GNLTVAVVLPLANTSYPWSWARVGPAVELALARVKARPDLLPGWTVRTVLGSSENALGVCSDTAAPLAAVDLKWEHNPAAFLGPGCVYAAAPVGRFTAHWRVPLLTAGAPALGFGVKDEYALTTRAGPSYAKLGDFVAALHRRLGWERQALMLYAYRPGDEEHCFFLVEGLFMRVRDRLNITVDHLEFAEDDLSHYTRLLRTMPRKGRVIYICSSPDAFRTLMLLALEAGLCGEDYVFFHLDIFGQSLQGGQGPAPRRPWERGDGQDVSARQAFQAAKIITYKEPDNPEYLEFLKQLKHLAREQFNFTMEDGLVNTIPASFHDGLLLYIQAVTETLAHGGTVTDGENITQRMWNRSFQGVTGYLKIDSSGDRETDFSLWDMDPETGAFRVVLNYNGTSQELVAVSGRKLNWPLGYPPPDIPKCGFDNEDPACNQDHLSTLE
Briefly: SPR. A general note: Surface plasmon resonance follows binding to a sensor surface in real time, without labels.

A further test concerns the target mouse NPR1 protein (mouse, UniProt P18293). Kind of test: SPR.
The target of test [8] is NPR2 extracellular domain with C-terminal MycMycHis (Homo sapiens, UniProt P20594). Briefly: SPR.
Test [9] addresses NPR3 extracellular domain with C-terminal MycMycHis (Homo sapiens, UniProt P17342). Kind of test: SPR.
Test [10] has as its target T4, atrial natriuretic peptide (human, UniProt P01160).
T4 chain: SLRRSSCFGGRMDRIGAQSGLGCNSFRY
Briefly: SPR.

Where two headings read alike, the source gives them in different places.

As a reminder, the EC50 is the concentration needed to bring the measured effect to its halfway point.

Sequence of NPR2 extracellular domain with C-terminal MycMycHis (P20594 23-458): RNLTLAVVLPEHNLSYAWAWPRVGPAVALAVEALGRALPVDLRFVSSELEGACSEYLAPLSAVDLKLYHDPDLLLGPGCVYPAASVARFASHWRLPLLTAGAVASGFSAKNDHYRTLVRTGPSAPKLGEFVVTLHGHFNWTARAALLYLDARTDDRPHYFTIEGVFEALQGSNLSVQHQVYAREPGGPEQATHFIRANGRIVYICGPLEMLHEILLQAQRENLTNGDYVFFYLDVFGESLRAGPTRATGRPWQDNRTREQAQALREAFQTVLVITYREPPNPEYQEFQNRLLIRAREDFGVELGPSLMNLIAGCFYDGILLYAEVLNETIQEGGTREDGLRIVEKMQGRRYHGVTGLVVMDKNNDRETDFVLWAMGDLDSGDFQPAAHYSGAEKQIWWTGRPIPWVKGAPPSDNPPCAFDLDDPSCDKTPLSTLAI
Sequence of mouse NPR1 protein (P18293 29-469): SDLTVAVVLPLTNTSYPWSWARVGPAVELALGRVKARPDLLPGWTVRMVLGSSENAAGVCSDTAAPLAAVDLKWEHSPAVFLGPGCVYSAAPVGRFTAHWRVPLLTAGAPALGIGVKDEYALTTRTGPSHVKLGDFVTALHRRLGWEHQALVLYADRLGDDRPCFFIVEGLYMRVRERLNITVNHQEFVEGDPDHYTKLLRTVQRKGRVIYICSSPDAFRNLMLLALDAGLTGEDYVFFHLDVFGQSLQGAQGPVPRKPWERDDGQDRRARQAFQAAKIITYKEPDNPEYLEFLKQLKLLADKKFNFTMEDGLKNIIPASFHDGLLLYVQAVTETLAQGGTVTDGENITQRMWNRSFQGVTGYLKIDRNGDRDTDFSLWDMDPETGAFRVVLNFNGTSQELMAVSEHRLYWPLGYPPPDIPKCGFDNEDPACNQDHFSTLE
Sequence of NPR3 extracellular domain with C-terminal MycMycHis (P17342 27-481): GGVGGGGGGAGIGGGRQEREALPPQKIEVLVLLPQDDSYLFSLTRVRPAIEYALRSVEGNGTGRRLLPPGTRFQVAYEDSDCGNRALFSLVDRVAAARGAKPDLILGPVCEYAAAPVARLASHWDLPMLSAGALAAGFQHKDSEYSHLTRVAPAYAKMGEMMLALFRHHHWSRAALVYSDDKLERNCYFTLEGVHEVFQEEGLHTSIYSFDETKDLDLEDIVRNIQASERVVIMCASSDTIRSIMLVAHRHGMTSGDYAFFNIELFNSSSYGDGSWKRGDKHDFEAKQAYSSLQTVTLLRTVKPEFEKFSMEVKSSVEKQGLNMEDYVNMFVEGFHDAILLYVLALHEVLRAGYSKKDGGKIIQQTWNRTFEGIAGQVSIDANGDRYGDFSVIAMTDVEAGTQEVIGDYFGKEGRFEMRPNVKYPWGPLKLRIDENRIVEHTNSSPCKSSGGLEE

B1: REGN5381 (antibody, V domains shown)
VH: QVQLVQSGAEVKKPGASVTVSCKASGYTFTDYYMHWVRQAPGQGLEWMGWIKPNSGGTNSAQRFQGRITMTWDTSISTAYMELSRLRSDDTAVYYCSRGGPVMNYYYYYGMDVWGQGTTVTVSS
VL: NIQMTQSPSSLSASVGDRVTITCRASQSIDSYLNWYQQKPGKAPKLLIYVASSLQSGVPSRFSGSGSGKDFTLTISSLQPEDFATYYCQQSYSIPTFGQGTRLEIK
For B1, in the test with canine NPR1, the “activation of canine NPR1 (Supplementary Fig. 1); EC50” value was above 100 nM. The EC50 was determined as 4.58 nM in [1]; 2.27 nM in [2]; 4.56 nM in test [3]; 2.42 nM in test [4]; 5.69 nM in [5]; 3.01 nM in test [6]. Moreover, the binding result is “binds” in test [7]; “no binding” with mouse NPR1 protein; “no binding” in [8]; “no binding” in test [9]; “no binding” in [10].

These data come from publication PMC11410649 (Nature, 2024).
